Data published in PMC10020352.

Target: Mu-opioid receptor, P35372
Sequence (P35372 whole entry): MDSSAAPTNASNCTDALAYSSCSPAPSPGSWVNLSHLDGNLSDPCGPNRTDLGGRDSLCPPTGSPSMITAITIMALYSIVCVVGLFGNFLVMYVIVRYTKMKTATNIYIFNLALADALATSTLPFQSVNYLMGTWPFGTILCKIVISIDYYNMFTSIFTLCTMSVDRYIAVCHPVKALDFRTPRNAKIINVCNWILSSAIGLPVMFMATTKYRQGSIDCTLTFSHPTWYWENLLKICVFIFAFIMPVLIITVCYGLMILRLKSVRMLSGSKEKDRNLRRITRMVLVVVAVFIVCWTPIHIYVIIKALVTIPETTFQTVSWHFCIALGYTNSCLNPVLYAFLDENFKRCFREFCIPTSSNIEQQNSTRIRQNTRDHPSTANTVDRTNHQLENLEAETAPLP

With YGGFLRR (modifications not checked) [Dyn1-7] the Activity (EC50, nM) for cAMP in MOP receptor over-expressing HEK293 cells was 3740 nM.
